T1: hOX40-EC-His (human, UniProt P43489 29-214)
T1 construct: extracellular domain; bought protein; also called recombinant human OX40 antigen protein; human OX40 extracellular segment antigen; not shown: 6 His label
T1 sequence (looked up): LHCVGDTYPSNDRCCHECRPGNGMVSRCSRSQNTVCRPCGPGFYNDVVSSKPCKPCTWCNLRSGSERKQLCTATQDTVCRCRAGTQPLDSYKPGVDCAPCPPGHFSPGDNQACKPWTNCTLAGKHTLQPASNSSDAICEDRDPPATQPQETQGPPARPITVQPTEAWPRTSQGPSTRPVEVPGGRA

T2: OX40 on OX40 over-expressed cells (UniProt P43489 29-277)
T2 construct: whole, on cells; human implied; also called OX40 expressed on the surface of OX40 expressing cell
T2 sequence (looked up): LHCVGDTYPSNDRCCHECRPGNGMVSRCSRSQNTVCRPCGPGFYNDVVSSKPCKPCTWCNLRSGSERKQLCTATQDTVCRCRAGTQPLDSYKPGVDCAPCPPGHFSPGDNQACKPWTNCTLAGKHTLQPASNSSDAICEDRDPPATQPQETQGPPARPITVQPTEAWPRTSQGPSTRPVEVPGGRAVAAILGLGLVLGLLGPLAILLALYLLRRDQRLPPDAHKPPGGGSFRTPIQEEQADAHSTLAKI


Assays:
hOX40-EC-His [1] = molecular target: T1, hOX40-EC-His; test: ELISA, supernatant 1:100, coated hOX40-EC-His
hOX40-EC-His [2] = molecular target: T1, hOX40-EC-His; test: ELISA, supernatant diluted 50 times, coated OX40 (CK60)
[3] = molecular target: T2, OX40 on OX40 over-expressed cells; test: flow cytometry, supernatant on OX40 over-expressed cells
Method: After collecting OX40 over-expressed cells by 200G centrifugation, wash them with PBS containing 3% FCS, and then resuspend them in 2.5 ml of PBS containing 3% FCS. […] Finally, the cells were resuspended in […] of PBS containing 3% FCS for detection by flow cytometry.

hOX40-EC-His [4] = molecular target: T1, hOX40-EC-His; test: ELISA, supernatant stoste, coated OX40 (CK60)
hOX40-EC-His [5] = molecular target: T1, hOX40-EC-His; test: ELISA, supernatant diluted 100 times, coated OX40 (CK60)

IgG ELISA (1:100) (hOX40-EC-His [1]) [OD650] | 450 nm light absorption (hOX40-EC-His [2]) [OD450] | Y586 channel PE fluorescence value [3] | 450 nm light absorption (hOX40-EC-His [4]) [OD450] | 450 nm light absorption (hOX40-EC-His [5]) [OD450] | Binder
2.4 |  | 166000 | 2.48 | 2.02 | 23D1-8 (antibody, V domains shown, hybridoma antibody, tested as culture supernatant) VH: QVQLVQSGAEVKKPGASVKVSCKASGYTFTGYYIHWVRQAPGQGLEWMGRINPNSGGTDFAQKFQARVTMTRDTAINIVYMELSRLRSDDTAVYYCARVVVASYYFDNWGQGTLVTVSS VL: not shown
2.1 |  | 243000 | 1.47 | 0.215 | 35B8-6 (antibody, V domains shown, hybridoma antibody, tested as culture supernatant) VH: QITLKESGPTLVKPTQTLTLTCTFSGFSLSTSAVNVGWIRQPHGKALEWLALIFWNDDKRYSPSLKNRLTITKDTSKDQVVLTMSNMDPVDTATYYCAQYNWNSSFDYWGQGTLVTVSS VL: DIQMTQSPSSLSASLGDRVTITCQASQDINTYLNWYQQKPGKAPKVLIYDASNLETGVPSRFSGSGSGTDFTFTISSLQPEDIATFYCQQYDNLITFGGGTKVEIKR
0.1 |  | 479000 | 2.43 | 1.9 | 55H6-6 (antibody, V domains shown, hybridoma antibody, tested as culture supernatant) VH: QVQLVQSGAEVKKPGASVKVSCKASGYTFTSYGISWVRQAPGQGLEWMGWISAYNGHTNYAQKLQGRVTMTTDTSTNTAYMELWSLRSDDTAVYYCTSDYGDYWGQGTLVTVSS VL: DVVVTQSPLSLPVTLGQPASISCRSSQSLVYSDGNTNLYWFQQRPGQSPRRLIYQVSNRDSGVPDRFSGSGSGTDFTLKISRVEAEDVGVYYCMQGTHWPPALTFGGGTEVEIKR
0.2 |  | 313000 | 2.19 | 0.574 | 24B9-10 (antibody, V domains shown, hybridoma antibody, tested as culture supernatant) VH: QVQLQESGPGLVKPSGTLSLTCAVSGGSISSSNWWTWVRQPPGKGLEWIGEIYHSGSTNYNPSLKSRVTISVDKSKNQFSLKLSSVTAADTAVYYCARTGPIVTTEYWGQGTLVTVSS VL: EIVLTQSPGTLSLSPGERATLSCRASQSVSSGYLAWYQQKPGQAPRLLIYGASIRATGIPDRFSGSGSGTDFTLTISRLEPEDFALYYCQQYGSSPLTFGGGTKVEIKR
2 |  | 208000 | 2.31 | 1.89 | 30B1-3 (antibody, V domains shown, hybridoma antibody, tested as culture supernatant) VH: not shown VL: EIVLTQSPGTLSLSPGERATFSCRASQSVSGSYLAWYQQKPGQAPRLLIHGASSRATGIPDRFSGSGSGTDFTLTISRLEPEDFAVYYCLQYGSSPLTFGGGTKVEIKR
2.4 |  | 243000 | 2.24 | 2.1 | 38D9-12 (antibody, V domains shown, hybridoma antibody, tested as culture supernatant) VH: QVQLQESGPGLVKPSGTLSLTCAVSGDSISSTNWWSWVRQPPGKGLEWIGEINHNGSTYYNPSLKSRVTISVDKSKNQFSLKLRSVTAADTAVYYCAREDYYYMDVWGKGTTVTVSS VL: DIQMTQSPSSLSASVGDRVTITCRTSQGIWNDLGWYQQKPGKAPKRLIYAASSLQSGVPSRFSGSESGTEFTLTISSLQPEDFATYYCLQYNNYPLTFGGGTKVEIKR

Further lines, the binder ahead of its results:

Binder | IgG ELISA (1:100) (hOX40-EC-His [1]) [OD650] | 450 nm light absorption (hOX40-EC-His [2]) [OD450] | Y586 channel PE fluorescence value [3] | 450 nm light absorption (hOX40-EC-His [4]) [OD450] | 450 nm light absorption (hOX40-EC-His [5]) [OD450]
1F10-12-3 (antibody, V domains shown, hybridoma antibody, tested as culture supernatant) VH: QVQLQESGPGLVKPSGTLSLTCAVSGGSISNSNWWNWVRQPPGRGLEWIGEIYHSGSTNYNPSLKSRVTISVDKSKNQFSLKLTSVTAADTAVYYCARYSTPFFDYWGQGNLVTVSS VL: DIQMTQSPSSLSASVGDRVTITCRASQSISNYLNWYQQKQGKAPKLLIYGASSLQSGVPSRFSGSGSGTDFTLTINSLQPEDFATYCCQQSYNNPLTFGGGTKVEIKR | 2.3 | 2.17 | 170000 |  | 
14D3-7-3 (antibody, V domains shown, hybridoma antibody, tested as culture supernatant) VH: EVQLVESGGGLVKPGGSLRLSCAASGFTFSNAWMSWVRQAPGKGLEWVGRIKRKTDGGTTDYATPVKGRFTISRDASKNTLYLQMNSLKTEDTAVYYCTSAARRGYFDIWGRGTLVTVSS VL: EIVLTQSPGTLSLSPGERATLSCRASQSVSSRYLAWYQQKPGQAPRLLIYGASNRATGMPDRFSGSGSGTDFTLTISRLEPEDFAMYYCQQYGSSPITFGQGTRLEIKR | 2.2 | 2.01 | 274000 |  | 
23C4-1-5 (antibody, V domains shown, hybridoma antibody, tested as culture supernatant) VH: QVQLQESGPGLVKPSGTLSLTCAVSGGSISSSNWWSWVRQPPGKGLEWIGEIYHSGSTTYNPSLKSRVTISVDKSKSQISLKLTSVTAADTAVYYCARGDVLLWFGGRGTLVTVSS VL: EIVLTQSPGTLSLSPGERASLSCRASQSVSSNYLAWYQQKPGQTPRLLIYGASIRATGIPDRFSGSGSGTDFTLIISRLEPEDFAVYYCQQYSSSPITFGQGTRLEIKR | 2.4 | 2.63 | 63900 |  | 
16E4-10-5 (antibody, V domains shown, hybridoma antibody, tested as culture supernatant) VH: QVQLQESGPGLVKPSGTLSLTCDVSGGSISSSNWWSWVRQPPGKGLEWIGEIYHSGSTNYNPSLKSRVTISVDKSKNQVSLKLNSVTAADTAVYYCARGDILLWFGGQGTLVTVSS VL: EIVLTQSPGTLSLSPGERATLSCRASQSVSSRYLAWYQQKPGQAPRLLIYGASNRATGMPDRFSGSGSGTDFTLTISRLEPEDFAVYYCQQYGSSPITFGQGTRLEIKR |  | 2.53 | 377000 |  | 
20G6-7-1 (antibody, V domains shown, hybridoma antibody, tested as culture supernatant) VH: QVQLQESGPGLVKPSGTLSLTCAVSGGSISSSNWWSWVRQPPGKGLEWIGEIYHSGNTNYNPSLKSRVTISVDKSKNQFSLKLSSVTAADTAVYYCARGGTTFDYWGQGTLVTVSS VL: EIVLMQYPGTLSLSSGERATLSCRASQSVSSRYLAWYQQKPGQAPRLLIYGASNRASGMPDRFSGSGSGTEFTLTISSLEPEDFAMYYCQQYGSSPITFGQGTRVEIKR |  | 2.21 | 352000 |  | 

Reference: patent US20240209104A1 (SHANGHAI ACEMAB, published 2024)
